Patent publication US20110300138A1 (published 2011)

Columns and labels:
[1] = target: TSHR260-alkaline phosphatase (TSHR260-AP) (human) (UniProt P05187); test: TSHR260-AP bridge ELISA, full length TSHR on wells; 0.1 µg/mL, diluted in assay buffer
[2] = target: TSHR260-alkaline phosphatase (TSHR260-AP) (human) (UniProt P05187); test: TSHR260-AP bridge ELISA, full length TSHR on wells; 0.05 µg/mL, diluted in HBD
[3] = target: TSHR260-AP (human); test: TSHR260-AP bridge ELISA (full length TSHR on wells, TSHR260-AP in solution); IgG 0.01 µg/mL diluted in assay buffer
[4] = target: TSHR260-AP (human); test: TSHR260-AP bridge ELISA (full length TSHR on wells, TSHR260-AP in solution); IgG 0.05 µg/mL diluted in HBD serum
[5] = target: human TSH receptor (full length, wild type) expressed in CHO cells (human) (UniProt P16473); test: cell-based or functional assay
[6] = target: TSHR260-alkaline phosphatase (TSHR260-AP) (human) (UniProt P05187); test: TSHR260-AP bridge ELISA, full length TSHR on wells; 0.01 µg/mL, diluted in HBD
[7] = target: TSHR260-alkaline phosphatase (TSHR260-AP) (human) (UniProt P05187); test: TSHR260-AP bridge ELISA, full length TSHR on wells; 250 µg/mL, diluted in HBD
[8] = target: TSHR260-AP (human); test: TSHR260-AP bridge ELISA (full length TSHR on wells, TSHR260-AP in solution); IgG 250 µg/mL diluted in assay buffer
[9] = target: TSHR260-AP (human); test: TSHR260-AP bridge ELISA (full length TSHR on wells, TSHR260-AP in solution); IgG 0.5 µg/mL diluted in assay buffer
[10] = target: human TSH receptor (wild type), expressed on transfected CHO cells (human) (UniProt P16473); test: cell-based or functional assay
[11] = target: human TSHR (thyroid stimulating hormone receptor) expressed in transfected CHO cells (human) (UniProt P16473); test: cell-based or functional assay
[12] = target: human TSHR (wild type, full length) expressed in CHO cells (human) (UniProt P16473); test: cell-based or functional assay

Mean absorbance at 405 nm (absorbance at 405 nm) [1]: -0.013
Mean absorbance at 405 nm (absorbance at 405 nm) [2]: -0.003
Mean absorbance at 405 nm (absorbance at 405 nm) [3]: -0.001
Mean absorbance at 405 nm (absorbance at 405 nm) [4]: -0.003
% Inhibition; T10 serum + 100 µg/mL 5C9 IgG [5]: 98.4%
% Inhibition; T11 serum + 100 µg/mL 5C9 IgG [5]: 8.5%
% Inhibition; T12 serum + 100 µg/mL 5C9 IgG [5]: 96.3%
Cyclic AMP concentration; 100 µg/mL 5C9 IgG alone [5]: 0.9 pmol/mL
Cyclic AMP concentration; HBD + 100 µg/mL 5C9 IgG [5]: 1.1 pmol/mL
Cyclic AMP concentration; T10 serum + 100 µg/mL 5C9 IgG [5]: 0.9 pmol/mL
Cyclic AMP concentration; T11 serum + 100 µg/mL 5C9 IgG [5]: 37.5 pmol/mL
Cyclic AMP concentration; T12 serum + 100 µg/mL 5C9 IgG [5]: 1.6 pmol/mL
Mean absorbance at 405 nm (absorbance at 405 nm) [6]: 0.017
Mean absorbance at 405 nm (absorbance at 405 nm) [7]: 0.058
Mean absorbance at 405 nm (absorbance at 405 nm) [8]: 1.12
Mean absorbance at 405 nm (absorbance at 405 nm) [9]: -0.005
% Inhibition (constitutive activity); 0.1 µg/mL 5C9 IgG [10]: 0%
% Inhibition (constitutive activity); 0.2 µg/mL 5C9 IgG [10]: 0%
% Inhibition (constitutive activity); 1 µg/mL 5C9 IgG [10]: 45.9%
% Inhibition (constitutive activity); 2 µg/mL 5C9 IgG [10]: 45.3%
% Inhibition; 5C9 IgG 0.01 µg/mL + T11 [10]: 4.3%
% Inhibition; 5C9 IgG 0.1 µg/mL + T11 [10]: 19.8%
% Inhibition; 5C9 IgG 1 µg/mL + T11 [10]: 23%
% Inhibition; 5C9 IgG 10 µg/mL + T11 [10]: 13.9%
% Inhibition; 5C9 IgG 100 µg/mL + T11 [10]: 11.1%
% Inhibition; pTSH 3 ng/mL + 0.001 µg/mL 5C9 [10]: 0.2%
% Inhibition; pTSH 3 ng/mL + 0.01 µg/mL 5C9 [10]: 0%
% Inhibition; pTSH 3 ng/mL + 0.1 µg/mL 5C9 [10]: 78.7%
% Inhibition; pTSH 3 ng/mL + 1 µg/mL 5C9 [10]: 93.5%
% Inhibition; pTSH 3 ng/mL + 10 µg/mL 5C9 [10]: 98%
% Inhibition; pTSH 3 ng/mL + 100 µg/mL 5C9 [10]: 99.2%
Cyclic AMP concentration; 100 µg/mL 5C9 alone [10]: 0.2 pmol/mL
Cyclic AMP concentration; 5C9 IgG 0.01 µg/mL + T11 [10]: 24.1 pmol/mL
Cyclic AMP concentration; 5C9 IgG 0.1 µg/mL + T11 [10]: 20.2 pmol/mL
Cyclic AMP concentration; 5C9 IgG 1 µg/mL + T11 [10]: 19.4 pmol/mL
Cyclic AMP concentration; 5C9 IgG 10 µg/mL + T11 [10]: 21.7 pmol/mL
Cyclic AMP concentration; 5C9 IgG 100 µg/mL + T11 [10]: 22.4 pmol/mL
Cyclic AMP concentration; 5C9 IgG 100 µg/mL alone [10]: 0.9 pmol/mL
Cyclic AMP concentration; pTSH 3 ng/mL + 0.001 µg/mL 5C9 [10]: 64.1 pmol/mL
Cyclic AMP concentration; pTSH 3 ng/mL + 0.01 µg/mL 5C9 [10]: 64.6 pmol/mL
Cyclic AMP concentration; pTSH 3 ng/mL + 0.1 µg/mL 5C9 [10]: 13.7 pmol/mL
Cyclic AMP concentration; pTSH 3 ng/mL + 1 µg/mL 5C9 [10]: 4.2 pmol/mL
Cyclic AMP concentration; pTSH 3 ng/mL + 10 µg/mL 5C9 [10]: 1.3 pmol/mL
Cyclic AMP concentration; pTSH 3 ng/mL + 100 µg/mL 5C9 [10]: 0.5 pmol/mL
Cyclic AMP production (constitutive activity); 0.1 µg/mL 5C9 IgG [10]: 68.2 pmol/mL
Cyclic AMP production (constitutive activity); 0.2 µg/mL 5C9 IgG [10]: 58.8 pmol/mL
Cyclic AMP production (constitutive activity); 1 µg/mL 5C9 IgG [10]: 31.4 pmol/mL
Cyclic AMP production (constitutive activity); 2 µg/mL 5C9 IgG [10]: 31.8 pmol/mL
% Inhibition; 3 ng/mL M22 IgG + 0.001 µg/mL 5C9 IgG [11]: 7.7%
% Inhibition; 3 ng/mL M22 IgG + 0.01 µg/mL 5C9 IgG [11]: 25.2%
% Inhibition; 3 ng/mL M22 IgG + 0.1 µg/mL 5C9 IgG [11]: 92.8%
% Inhibition; 3 ng/mL M22 IgG + 1 µg/mL 5C9 IgG [11]: 97.1%
% Inhibition; 3 ng/mL M22 IgG + 10 µg/mL 5C9 IgG [11]: 94.4%
% Inhibition; 3 ng/mL M22 IgG + 100 µg/mL 5C9 IgG [11]: 97.1%
Cyclic AMP concentration; 3 ng/mL M22 IgG + 0.001 µg/mL 5C9 IgG [11]: 41 pmol/mL
Cyclic AMP concentration; 3 ng/mL M22 IgG + 0.01 µg/mL 5C9 IgG [11]: 33.2 pmol/mL
Cyclic AMP concentration; 3 ng/mL M22 IgG + 0.1 µg/mL 5C9 IgG [11]: 3.2 pmol/mL
Cyclic AMP concentration; 3 ng/mL M22 IgG + 1 µg/mL 5C9 IgG [11]: 1.3 pmol/mL
Cyclic AMP concentration; 3 ng/mL M22 IgG + 10 µg/mL 5C9 IgG [11]: 2.5 pmol/mL
Cyclic AMP concentration; 3 ng/mL M22 IgG + 100 µg/mL 5C9 IgG [11]: 1.3 pmol/mL
Cyclic AMP concentration; 100 µg/mL 5C9 IgG [11]: 1.7 pmol/mL
% Inhibition of T5 serum stimulation; 0.01 µg/mL 5C9 IgG [12]: 17.2%
% Inhibition of T5 serum stimulation; 0.1 µg/mL 5C9 IgG [12]: 91.2%
% Inhibition of T5 serum stimulation; 1 µg/mL 5C9 IgG [12]: 97.8%
% Inhibition of T5 serum stimulation; 10 µg/mL 5C9 IgG [12]: 98.9%
% Inhibition of T5 serum stimulation; 100 µg/mL 5C9 IgG [12]: 98.9%
Cyclic AMP concentration; 0.01 µg/mL 5C9 IgG + T5 [12]: 52.9 pmol/mL
B1: 5C9 IgG (antibody, from another filing, V domains shown)
VH: EVQLVESGGGLIQPGGSLRLSCAASGFTVSSNYMSWVRQAPGKGLEWVSVTYSGGSTSYADSVKGRFTISRDNSKNTLYLQMNSLRAEDTAVYYCARGGRYCSSISCYARSGCDYWGQGTLVTVSS
VL: AIQMTQSPSSLSASVGDRVTITCRASQSISNYLNWYQQKPGKAPKLLIYAASSLQSGVPSRFSGSGSGTDFTLTISSLQPEDFATYYCQQSYSSPSTTFGQGTKLEIK
